{"source": "paper PMC10981675", "about": "“Structural basis for phage-mediated activation and repression of bacterial DSR2 anti-phage defense system” (Nature Communications, 2024)", "molecules": {"B1": {"name": "tail tube protein of phage SPR, wild type (natural protein)", "chain": "MKTVIQDTADVYFKRKSDGKLVFTAEAQTASFSQAISEEKLRGGIGNKPLYILKSEKEINLTVKNAFFDLEWLAMTQGETIQEETKVKVFDREHGLIVDDTNKVTLKGKPVSDVTFYNKKGLTYKIAVSTDGTYTIPTAFAAAKDKLTAVYQIEKVGRRLAIKASKFSERYEVEYRTIAYNPDTEEVYSDIYIQFPNVSPSGEFEMSLENGNALAPEIKFEALADTDTDEMAVVIEASRDENTAAPVEDTTGSTQSSDLGGTTE", "notes": "tail tube protein of Bacillus phage SPR; domains D1 and D2; GST removal with HRV 3C is told for the DSR2-tube complex; Alone it runs as monomeric and oligomeric species on SEC; Only D1 is seen in the maps; also called phage tail tube protein; source: E. coli BL21 Star (DE3); purified alone, or co-purified with DSR2 (Ni-NTA, glutathione resin, HRV 3C cleavage, HiTrap Q, Superdex 200); not shown: …"}, "B2": {"name": "defense-associated sirtuin 2 (DSR2), wild type (enzyme, Bacillus subtilis)", "chain": "MVKVDLESKRYGEKLKEVFLMLDNNVVECIKEITESSRNGKLVFFVGAGVSTLSDYPQWWRLVDKYHEELYGSPKKGNYSSDEYLRIPQIFYNVKGEMAFDGILKDFFQVDKPTNPIHDKILAMNPAHVITTNYDNLIDTACWKRGKYFSVISAEEDVANATSSRYLLKVHGDFRKGFKGENVVLKEDDYLNYDQNYPLISNLMKTIIATHTIVFIGYGLGDYNINMLLNWVRKLQKDSFHKPFFIRTDPSPIENETLIYYENKGLRIIDAASLIDSNEYDYLERYSAVMDLLIESQENKFITKDDEVIDYIYGKISPLFALQYIRKIDLKHVFEYDYHFEVNGTVVRHKNKGFGYMERFFELKESCDERSKLSKKQYERFNALFNFFEKNGVICMAKDAGTLNTSIEINSLAYHGKYDVMKKFIEEQSVSIEDDYKKAFFLACLGRWEESYDLYSNIILNSIDESNGCVYYLSQINRYRIYQSITQAVTQFNGLGLLTFGRHYKPFTDEFLARIEREMTNFNIDDLFNGMPFEFQKKYKILEFLSDNQFLYDDTVKLFELTNKVRSEMSEGSYSFGMSSDIVVLLRLYDNLRFLYENCLWSVSFHEFHQYIRNSMSLLIEKAEYERTRDIDELGFSFFGKKSGFFMEYYDFVNISRHFKIDDIKNLERSCSIDKIRFGEQEKIEEYLVGIAEEITKQFSANGMNVVFYTQFISEAKAALYFAKYVKLSEEGLGKIVKALLFYFPERDLDIGKRYVWLERLTKCNELPKSIISIIDDFLVLQAEKHIDQNYSEVSSNGLYSRDYGALIKHFEKNFISKRLSEITLCLTQDKQKQIDFLFKLLPLLSTNAKSHLLSFKSVENINDLMNGIRIGLIDEFTPEHEELIIEYLETRKVNYIVEKEKGIQTFSSNDYMSTFGIWYFLEEINNSKMEEFIGMDDQYDFFVDPENFDYKKFIPSWLKNYNDKLLGKIAGNKHMKHHVIEVLKERVKNSNDKRYLEILMNYFI", "notes": "DSR2 (defense-associated sirtuin 2) of Bacillus subtilis, NCBI protein WP_029317421; codon-optimized synthetic gene in pRSFDuet MCS1; Tetramer (dimer of dimers) by cryo-EM and SEC; also called WT DSR2; wild-type DSR2; source: E. coli BL21 Star (DE3), purified (Ni-NTA, HiTrap Q, Superdex 200); also co-purified with tube or DSAD1; not shown: 6×His, N-terminal, kept"}, "B3": {"name": "DSR2 H171A (enzyme, Bacillus subtilis)", "chain": "MVKVDLESKRYGEKLKEVFLMLDNNVVECIKEITESSRNGKLVFFVGAGVSTLSDYPQWWRLVDKYHEELYGSPKKGNYSSDEYLRIPQIFYNVKGEMAFDGILKDFFQVDKPTNPIHDKILAMNPAHVITTNYDNLIDTACWKRGKYFSVISAEEDVANATSSRYLLKVAGDFRKGFKGENVVLKEDDYLNYDQNYPLISNLMKTIIATHTIVFIGYGLGDYNINMLLNWVRKLQKDSFHKPFFIRTDPSPIENETLIYYENKGLRIIDAASLIDSNEYDYLERYSAVMDLLIESQENKFITKDDEVIDYIYGKISPLFALQYIRKIDLKHVFEYDYHFEVNGTVVRHKNKGFGYMERFFELKESCDERSKLSKKQYERFNALFNFFEKNGVICMAKDAGTLNTSIEINSLAYHGKYDVMKKFIEEQSVSIEDDYKKAFFLACLGRWEESYDLYSNIILNSIDESNGCVYYLSQINRYRIYQSITQAVTQFNGLGLLTFGRHYKPFTDEFLARIEREMTNFNIDDLFNGMPFEFQKKYKILEFLSDNQFLYDDTVKLFELTNKVRSEMSEGSYSFGMSSDIVVLLRLYDNLRFLYENCLWSVSFHEFHQYIRNSMSLLIEKAEYERTRDIDELGFSFFGKKSGFFMEYYDFVNISRHFKIDDIKNLERSCSIDKIRFGEQEKIEEYLVGIAEEITKQFSANGMNVVFYTQFISEAKAALYFAKYVKLSEEGLGKIVKALLFYFPERDLDIGKRYVWLERLTKCNELPKSIISIIDDFLVLQAEKHIDQNYSEVSSNGLYSRDYGALIKHFEKNFISKRLSEITLCLTQDKQKQIDFLFKLLPLLSTNAKSHLLSFKSVENINDLMNGIRIGLIDEFTPEHEELIIEYLETRKVNYIVEKEKGIQTFSSNDYMSTFGIWYFLEEINNSKMEEFIGMDDQYDFFVDPENFDYKKFIPSWLKNYNDKLLGKIAGNKHMKHHVIEVLKERVKNSNDKRYLEILMNYFI", "notes": "DSR2 of Bacillus subtilis, NCBI protein WP_029317421, with H171A; source: E. coli, co-expressed with the tail tube protein, co-purified"}}, "key": {"[1]": {"target": "T1, DSR2–tube complex (Bacillus subtilis, UniProt P0DXN8)", "T1 construct": "gene BKP58_08510; full-length DSR2, N-terminal 6xHis, E. coli BL21 Star (DE3), codon-optimized; tube GST tag removed by HRV 3C; tetrameric DSR2; DSR2:tube 4:2 (wild type) or 4:4 (H171A with NAD+); with Tail tube protein (Bacillus phage SPR)", "T1 sequence (P0DXN8 1-1005)": "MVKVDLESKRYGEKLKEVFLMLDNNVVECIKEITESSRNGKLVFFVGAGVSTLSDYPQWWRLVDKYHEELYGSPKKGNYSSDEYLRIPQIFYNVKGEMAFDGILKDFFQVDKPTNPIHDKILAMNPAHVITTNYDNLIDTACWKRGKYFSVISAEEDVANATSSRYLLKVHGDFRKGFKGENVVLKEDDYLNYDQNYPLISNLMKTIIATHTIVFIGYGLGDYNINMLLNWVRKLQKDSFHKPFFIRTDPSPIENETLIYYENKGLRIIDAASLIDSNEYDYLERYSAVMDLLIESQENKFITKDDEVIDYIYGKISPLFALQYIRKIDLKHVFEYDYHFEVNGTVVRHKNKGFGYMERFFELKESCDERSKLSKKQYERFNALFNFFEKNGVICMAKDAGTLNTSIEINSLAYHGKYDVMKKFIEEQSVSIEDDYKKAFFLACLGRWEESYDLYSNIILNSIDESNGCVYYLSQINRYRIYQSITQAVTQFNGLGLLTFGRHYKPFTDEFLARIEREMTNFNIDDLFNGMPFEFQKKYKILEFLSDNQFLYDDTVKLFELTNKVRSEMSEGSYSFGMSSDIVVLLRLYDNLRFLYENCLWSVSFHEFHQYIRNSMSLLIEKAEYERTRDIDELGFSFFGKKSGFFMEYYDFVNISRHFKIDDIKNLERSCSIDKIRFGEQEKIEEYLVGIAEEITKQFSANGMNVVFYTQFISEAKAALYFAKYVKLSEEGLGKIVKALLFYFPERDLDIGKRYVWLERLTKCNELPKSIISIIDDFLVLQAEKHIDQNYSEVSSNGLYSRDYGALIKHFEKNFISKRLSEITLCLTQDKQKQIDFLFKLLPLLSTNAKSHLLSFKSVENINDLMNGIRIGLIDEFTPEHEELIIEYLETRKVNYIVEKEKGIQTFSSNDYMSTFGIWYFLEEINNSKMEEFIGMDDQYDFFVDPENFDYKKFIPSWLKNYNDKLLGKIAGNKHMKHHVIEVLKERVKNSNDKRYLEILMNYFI", "T1 sequence (A0AAE9G628 1-264 partner)": "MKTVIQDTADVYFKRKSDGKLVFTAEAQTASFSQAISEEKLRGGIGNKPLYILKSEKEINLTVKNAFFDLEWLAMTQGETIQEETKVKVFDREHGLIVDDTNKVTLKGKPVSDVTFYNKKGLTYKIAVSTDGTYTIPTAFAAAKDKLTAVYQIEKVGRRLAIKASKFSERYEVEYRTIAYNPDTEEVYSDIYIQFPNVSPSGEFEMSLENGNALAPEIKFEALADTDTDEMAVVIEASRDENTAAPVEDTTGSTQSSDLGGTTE", "assay": "fluorescence NADase assay (ex […] nm, em […] nm)", "type": "biochemical", "conditions": "400 nM protein, 50 μM εNAD+, 10 mM MES pH 6.5, 75 mM KCl, 2 mM MgCl2, 37 °C"}, "[2]": {"target": "defense-associated sirtuin 2 (DSR2), wild type (Bacillus subtilis) (UniProt P0DXN8)", "assay": "cryo-EM structure; co-purified complex incubated with 1 mM NAD+ before freezing", "conditions": "scale: DSAD1 per DSR2"}, "[3]": {"target": "defense-associated sirtuin 2 (DSR2), wild type (Bacillus subtilis) (UniProt P0DXN8)", "assay": "cryo-EM structure; purified DSR2 (~25 mg/mL), co-purified DSR2-DSAD1 (~25 mg/mL) or co-purified DSR2-tube (~4 mg/mL, polylysine-treated grid); no NAD+ added; Titan Krios 300 kV", "conditions": "scale: DSAD1 per DSR2"}, "[4]": {"target": "B3", "assay": "cryo-EM structure; co-purified complex incubated with 1 mM NAD+ before freezing", "conditions": "both partners purified"}, "[5]": {"target": "B2", "assay": "cryo-EM structure; purified DSR2 (~25 mg/mL), co-purified DSR2-DSAD1 (~25 mg/mL) or co-purified DSR2-tube (~4 mg/mL, polylysine-treated grid); no NAD+ added; Titan Krios 300 kV", "conditions": "both partners purified"}, "[6]": {"target": "the molecule itself", "assay": "SEC; purified tail tube protein alone"}, "[7]": {"target": "the molecule itself", "assay": "SEC; purified DSR2 alone; Superdex 200 Increase 10/300 GL, 20 mM Tris-HCl pH 7.5, 150 mM NaCl, 1 mM DTT"}, "[8]": {"target": "the molecule itself", "assay": "cryo-EM structure; co-purified complex incubated with 1 mM NAD+ before freezing"}}}
{"molecule": "NC(=O)c1ccc[n+]([C@@H]2O[C@H](COP(=O)(O)OP(=O)(O)OC[C@H]3O[C@@H](n4cnc5c4ncn4ccnc54)[C@H](O)[C@@H]3O)[C@@H](O)[C@H]2O)c1", "note": "[εNAD^+]", "values": [{"measurement": "fluorescence NADase assay (ex 300 nm, em 410 nm)", "setting": "[1]", "value": "The purified DSR2–tube complex exhibited pronounced NADase activity"}]}
{"molecule": "DSR anti-defense 1 (DSAD1) (natural protein)", "values": [{"measurement": "stoichiometry N", "setting": "[2]", "value": 0.5}, {"measurement": "stoichiometry N", "setting": "[3]", "value": 0.5}]}
{"molecule": "B1", "values": [{"measurement": "stoichiometry N", "setting": "[4]", "value": "1 tube per DSR2 (printed as DSR2:tube 4:4)"}, {"measurement": "stoichiometry N", "setting": "[5]", "value": "0.5 tube per DSR2 (printed as DSR2:tube 4:2)"}, {"measurement": "binding result", "setting": "[6]", "value": "binds"}]}
{"molecule": "B2", "values": [{"measurement": "stoichiometry N", "setting": "[7]", "value": 4}]}
{"molecule": "B3", "values": [{"measurement": "stoichiometry N", "setting": "[8]", "value": 4}]}
